Laboratory results reported in FireProtDB (doi:10.1007/s10930-006-9055-y).

Details: Weissella confusa, Thermal, reversible: No, whole UniProt chain shown
[1] = pH 6, DSC, Natrium phosphate Imidazol 50 mM 250 mM, NaCl 300 mM
[2] = pH 7, DSC, Natrium phosphate Imidazol 50 mM 250 mM, NaCl 300 mM
[3] = pH 8, DSC, Natrium phosphate Imidazol 50 mM 250 mM, NaCl 300 mM

B1: L-2-hydroxyisocaproate dehydrogenase wild type, P14295 (protein)
chain: MARKIGIIGLGNVGAAVAHGLIAQGVADDYVFIDANEAKVKADQIDFQDAMANLEAHGNIVINDWAALADADVVISTLGNIKLQQDNPTGDRFAELKFTSSMVQSVGTNLKESGFHGVLVVISNPVDVITALFQHVTGFPAHKVIGTGTLLDTARMQRAVGEAFDLDPRSVSGYNLGEHGNSQFVAWSTVRVMGQPIVTLADAGDIDLAAIEEEARKGGFTVLNGKGYTSYGVATSAIRIAKAVMADAHAELVVSNRRDDMGMYLSYPAIIGRDGVLAETTLDLTTDEQEKLLQSRDYIQQRFDEIVDTL
Tm (pH 6, CD, Potassium phosphate 5 mM): 56.8 °C | Tm [1]: 62.5 °C | unfolding enthalpy (calorimetric) [1]: 222 kcal/mol | unfolding enthalpy (van 't Hoff) [1]: 227 kcal/mol | Tm (pH 6, DSC, Potassium phosphate 5 mM): 57.2 °C | Tm (pH 7, CD, Potassium phosphate 5 mM): 60.2 °C | Tm [2]: 55.1 °C | unfolding enthalpy (calorimetric) [2]: 203 kcal/mol | unfolding enthalpy (van 't Hoff) [2]: 202 kcal/mol | Tm (pH 7, DSC, Potassium phosphate 5 mM): 59.6 °C | Tm (pH 8, CD, Potassium phosphate 5 mM): 56.2 °C | Tm [3]: 44.1 °C | unfolding enthalpy (calorimetric) [3]: 221 kcal/mol | unfolding enthalpy (van 't Hoff) [3]: 225 kcal/mol
